{
  "source": "the Human Domainome abundance scans (Beltran et al. 2025)",
  "note": "± gives the uncertainty stated by the source.",
  "data": [
    {"experiment": "abundance fitness (aPCA) (normalised: wild type 0, dead -1); higher = more abundant; growth selection in yeast, the domain comes from the species named", "conditions": "Homo sapiens", "values": [
      {"substance": "BAG family molecular chaperone regulator 3 A13C, O95817", "abundance fitness": "-0.603 ± 0.46"},
      {"substance": "BAG family molecular chaperone regulator 3 A13D, O95817", "abundance fitness": "0.279 ± 0.07"},
      {"substance": "BAG family molecular chaperone regulator 3 A13E, O95817", "abundance fitness": "-0.47 ± 0.28"},
      {"substance": "BAG family molecular chaperone regulator 3 A13G, O95817", "abundance fitness": "-0.412 ± 0.094"},
      {"substance": "BAG family molecular chaperone regulator 3 A13K, O95817", "abundance fitness": "0.174 ± 0.17"},
      {"substance": "BAG family molecular chaperone regulator 3 A13L, O95817", "abundance fitness": "0.127 ± 0.13"},
      {"substance": "BAG family molecular chaperone regulator 3 A13M, O95817", "abundance fitness": "-0.172 ± 0.31"},
      {"substance": "BAG family molecular chaperone regulator 3 A13Q, O95817", "abundance fitness": "-0.167 ± 0.086"},
      {"substance": "BAG family molecular chaperone regulator 3 A13R, O95817", "abundance fitness": "-0.316 ± 0.13"},
      {"substance": "BAG family molecular chaperone regulator 3 A13S, O95817", "abundance fitness": "-0.321 ± 0.2"},
      {"substance": "BAG family molecular chaperone regulator 3 A13T, O95817", "abundance fitness": "0.169 ± 0.2"},
      {"substance": "BAG family molecular chaperone regulator 3 A13V, O95817", "abundance fitness": "0.328 ± 0.087"},
      {"substance": "BAG family molecular chaperone regulator 3 A13W, O95817", "abundance fitness": "-0.774 ± 0.32"},
      {"substance": "BAG family molecular chaperone regulator 3 A13Y, O95817", "abundance fitness": "-0.047 ± 0.46"},
      {"substance": "BAG family molecular chaperone regulator 3 D18C, O95817", "abundance fitness": "-0.009 ± 0.15"},
      {"substance": "BAG family molecular chaperone regulator 3 D18E, O95817", "abundance fitness": "-0.058 ± 0.074"},
      {"substance": "BAG family molecular chaperone regulator 3 D18F, O95817", "abundance fitness": "-0.343 ± 0.23"},
      {"substance": "BAG family molecular chaperone regulator 3 D18H, O95817", "abundance fitness": "-0.394 ± 0.17"},
      {"substance": "BAG family molecular chaperone regulator 3 D18I, O95817", "abundance fitness": "-0.205 ± 0.27"},
      {"substance": "BAG family molecular chaperone regulator 3 D18K, O95817", "abundance fitness": "0.22 ± 0.18"},
      {"substance": "BAG family molecular chaperone regulator 3 D18L, O95817", "abundance fitness": "-0.313 ± 0.12"},
      {"substance": "BAG family molecular chaperone regulator 3 D18M, O95817", "abundance fitness": "-0.406 ± 0.26"},
      {"substance": "BAG family molecular chaperone regulator 3 D18N, O95817", "abundance fitness": "0.148 ± 0.068"},
      {"substance": "BAG family molecular chaperone regulator 3 D18P, O95817", "abundance fitness": "0.065 ± 0.092"},
      {"substance": "BAG family molecular chaperone regulator 3 D18Q, O95817", "abundance fitness": "0.012 ± 0.19"},
      {"substance": "BAG family molecular chaperone regulator 3 D18R, O95817", "abundance fitness": "-0.116 ± 0.09"},
      {"substance": "BAG family molecular chaperone regulator 3 D18S, O95817", "abundance fitness": "-0.047 ± 0.13"},
      {"substance": "BAG family molecular chaperone regulator 3 D18T, O95817", "abundance fitness": "0.03 ± 0.11"},
      {"substance": "BAG family molecular chaperone regulator 3 D18W, O95817", "abundance fitness": "-0.317 ± 0.16"},
      {"substance": "BAG family molecular chaperone regulator 3 D18Y, O95817", "abundance fitness": "-0.641 ± 0.35"},
      {"substance": "BAG family molecular chaperone regulator 3 D20A, O95817", "abundance fitness": "-0.557 ± 0.15"},
      {"substance": "BAG family molecular chaperone regulator 3 D20C, O95817", "abundance fitness": "-0.2 ± 0.11"},
      {"substance": "BAG family molecular chaperone regulator 3 D20E, O95817", "abundance fitness": "-0.018 ± 0.1"},
      {"substance": "BAG family molecular chaperone regulator 3 D20F, O95817", "abundance fitness": "-0.09 ± 0.32"},
      {"substance": "BAG family molecular chaperone regulator 3 D20G, O95817", "abundance fitness": "0.08 ± 0.06"},
      {"substance": "BAG family molecular chaperone regulator 3 D20I, O95817", "abundance fitness": "-0.558 ± 0.37"},
      {"substance": "BAG family molecular chaperone regulator 3 D20K, O95817", "abundance fitness": "-0.429 ± 0.23"},
      {"substance": "BAG family molecular chaperone regulator 3 D20L, O95817", "abundance fitness": "-0.495 ± 0.088"},
      {"substance": "BAG family molecular chaperone regulator 3 D20M, O95817", "abundance fitness": "0.365 ± 0.15"},
      {"substance": "BAG family molecular chaperone regulator 3 D20N, O95817", "abundance fitness": "0.044 ± 0.13"},
      {"substance": "BAG family molecular chaperone regulator 3 D20P, O95817", "abundance fitness": "-0.22 ± 0.19"},
      {"substance": "BAG family molecular chaperone regulator 3 D20Q, O95817", "abundance fitness": "-0.789 ± 0.33"},
      {"substance": "BAG family molecular chaperone regulator 3 D20R, O95817", "abundance fitness": "-0.228 ± 0.085"},
      {"substance": "BAG family molecular chaperone regulator 3 D20S, O95817", "abundance fitness": "0.15 ± 0.087"},
      {"substance": "BAG family molecular chaperone regulator 3 D20V, O95817", "abundance fitness": "-0.241 ± 0.074"},
      {"substance": "BAG family molecular chaperone regulator 3 D20W, O95817", "abundance fitness": "-0.42 ± 0.15"},
      {"substance": "BAG family molecular chaperone regulator 3 D20Y, O95817", "abundance fitness": "-0.479 ± 0.3"},
      {"substance": "BAG family molecular chaperone regulator 3 D31A, O95817", "abundance fitness": "-0.22 ± 0.12"},
      {"substance": "BAG family molecular chaperone regulator 3 D31C, O95817", "abundance fitness": "-0.334 ± 0.074"},
      {"substance": "BAG family molecular chaperone regulator 3 D31E, O95817", "abundance fitness": "0.166 ± 0.077"},
      {"substance": "BAG family molecular chaperone regulator 3 D31F, O95817", "abundance fitness": "-1.13 ± 0.34"},
      {"substance": "BAG family molecular chaperone regulator 3 D31G, O95817", "abundance fitness": "-0.491 ± 0.084"},
      {"substance": "BAG family molecular chaperone regulator 3 D31K, O95817", "abundance fitness": "-0.477 ± 0.28"},
      {"substance": "BAG family molecular chaperone regulator 3 D31L, O95817", "abundance fitness": "-0.732 ± 0.1"},
      {"substance": "BAG family molecular chaperone regulator 3 D31M, O95817", "abundance fitness": "-0.182 ± 0.15"},
      {"substance": "BAG family molecular chaperone regulator 3 D31N, O95817", "abundance fitness": "-0.813 ± 0.26"},
      {"substance": "BAG family molecular chaperone regulator 3 D31P, O95817", "abundance fitness": "-0.886 ± 0.22"},
      {"substance": "BAG family molecular chaperone regulator 3 D31Q, O95817", "abundance fitness": "-0.557 ± 0.22"},
      {"substance": "BAG family molecular chaperone regulator 3 D31R, O95817", "abundance fitness": "-0.473 ± 0.071"},
      {"substance": "BAG family molecular chaperone regulator 3 D31S, O95817", "abundance fitness": "-0.67 ± 0.2"},
      {"substance": "BAG family molecular chaperone regulator 3 D31T, O95817", "abundance fitness": "-0.56 ± 0.18"},
      {"substance": "BAG family molecular chaperone regulator 3 D31V, O95817", "abundance fitness": "-0.433 ± 0.12"},
      {"substance": "BAG family molecular chaperone regulator 3 D31W, O95817", "abundance fitness": "-0.33 ± 0.13"},
      {"substance": "BAG family molecular chaperone regulator 3 D41A, O95817", "abundance fitness": "-0.82 ± 0.23"},
      {"substance": "BAG family molecular chaperone regulator 3 D41C, O95817", "abundance fitness": "-0.641 ± 0.42"},
      {"substance": "BAG family molecular chaperone regulator 3 D41E, O95817", "abundance fitness": "-0.874 ± 0.2"},
      {"substance": "BAG family molecular chaperone regulator 3 D41G, O95817", "abundance fitness": "-0.621 ± 0.14"},
      {"substance": "BAG family molecular chaperone regulator 3 D41H, O95817", "abundance fitness": "-0.541 ± 0.095"},
      {"substance": "BAG family molecular chaperone regulator 3 D41I, O95817", "abundance fitness": "-0.622 ± 0.45"},
      {"substance": "BAG family molecular chaperone regulator 3 D41K, O95817", "abundance fitness": "-1.05 ± 0.41"},
      {"substance": "BAG family molecular chaperone regulator 3 D41L, O95817", "abundance fitness": "-1.1 ± 0.17"},
      {"substance": "BAG family molecular chaperone regulator 3 D41M, O95817", "abundance fitness": "-1 ± 0.45"},
      {"substance": "BAG family molecular chaperone regulator 3 D41N, O95817", "abundance fitness": "-0.664 ± 0.12"},
      {"substance": "BAG family molecular chaperone regulator 3 D41P, O95817", "abundance fitness": "-0.65 ± 0.16"},
      {"substance": "BAG family molecular chaperone regulator 3 D41Q, O95817", "abundance fitness": "-0.364 ± 0.32"},
      {"substance": "BAG family molecular chaperone regulator 3 D41R, O95817", "abundance fitness": "-0.59 ± 0.084"},
      {"substance": "BAG family molecular chaperone regulator 3 D41S, O95817", "abundance fitness": "-0.868 ± 0.27"},
      {"substance": "BAG family molecular chaperone regulator 3 D41T, O95817", "abundance fitness": "-0.612 ± 0.23"},
      {"substance": "BAG family molecular chaperone regulator 3 D41V, O95817", "abundance fitness": "-0.851 ± 0.099"},
      {"substance": "BAG family molecular chaperone regulator 3 D41W, O95817", "abundance fitness": "-1.16 ± 0.44"},
      {"substance": "BAG family molecular chaperone regulator 3 D51A, O95817", "abundance fitness": "-0.682 ± 0.12"},
      {"substance": "BAG family molecular chaperone regulator 3 D51C, O95817", "abundance fitness": "-0.48 ± 0.22"},
      {"substance": "BAG family molecular chaperone regulator 3 D51F, O95817", "abundance fitness": "-0.234 ± 0.48"},
      {"substance": "BAG family molecular chaperone regulator 3 D51G, O95817", "abundance fitness": "-0.62 ± 0.19"},
      {"substance": "BAG family molecular chaperone regulator 3 D51H, O95817", "abundance fitness": "-0.262 ± 0.42"},
      {"substance": "BAG family molecular chaperone regulator 3 D51K, O95817", "abundance fitness": "-0.037 ± 0.3"},
      {"substance": "BAG family molecular chaperone regulator 3 D51L, O95817", "abundance fitness": "-0.859 ± 0.2"},
      {"substance": "BAG family molecular chaperone regulator 3 D51M, O95817", "abundance fitness": "-0.658 ± 0.36"},
      {"substance": "BAG family molecular chaperone regulator 3 D51Q, O95817", "abundance fitness": "-0.602 ± 0.42"},
      {"substance": "BAG family molecular chaperone regulator 3 D51R, O95817", "abundance fitness": "-0.568 ± 0.17"},
      {"substance": "BAG family molecular chaperone regulator 3 D51S, O95817", "abundance fitness": "-0.383 ± 0.14"}
    ]}
  ]
}
